Test [1] has as its target T1, S2B‐W104A‐6G11 post MMP‐9 digestion (scFv cleaved off, not removed) (human | chicken). Description: BLI. (BLI is a label-free optical method that tracks binding on a fibre tip over time.)
The target in test [2] is T2, S2B‐R101A‐6G11 post MMP‐9 digestion (scFv cleaved off, not removed) (human | chicken). Description: BLI.
The target in test [3] is T3, S2B‐Y52A‐6G11 post MMP‐9 digestion (scFv cleaved off, not removed) (human | chicken). Kind of test: BLI.
The target in test [4] is T3, S2B‐Y52A‐6G11 post MMP‐9 digestion …. Description: BLI; MMP-9 cleaved.
Target sequence in this assay (heavy, as listed by the source, chain 2 of 2): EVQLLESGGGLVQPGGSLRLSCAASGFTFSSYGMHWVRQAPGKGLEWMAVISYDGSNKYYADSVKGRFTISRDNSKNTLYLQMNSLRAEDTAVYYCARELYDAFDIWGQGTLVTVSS
Target sequence in this assay (light, as listed by the source, chain 4 of 2): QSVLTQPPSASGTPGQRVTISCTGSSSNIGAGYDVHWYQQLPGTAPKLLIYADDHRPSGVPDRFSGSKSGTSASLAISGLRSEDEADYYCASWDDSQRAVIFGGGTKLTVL
Test [5] deals with T1, S2B‐W104A‐6G11 post MMP‐9 digestion …. Description: BLI; MMP-9 cleaved.
Target sequence in this assay (heavy, as listed by the source, chain 2 of 2): as the sequence (heavy, as listed by the source, chain 2 of 2) above
Target sequence in this assay (light, as listed by the source, chain 4 of 2): as the sequence (light, as listed by the source, chain 4 of 2) above
For test [6], the target named is T2, S2B‐R101A‐6G11 post MMP‐9 digestion …. Kind of test: BLI; MMP-9 cleaved.
Target sequence in this assay (heavy, as listed by the source, chain 2 of 2): as the sequence (heavy, as listed by the source, chain 2 of 2) above
Target sequence in this assay (light, as listed by the source, chain 4 of 2): as the sequence (light, as listed by the source, chain 4 of 2) above
Test [7] addresses T4, 6G11 (BI‐1206), full‐length antibody containing the PGLALA Fc mutations (human). Kind of test: BLI.
Test [8] concerns the target T4, 6G11 (BI‐1206), full‐length antibody …. Description: ELISA. A general note: An ELISA detects its analyte on a solid surface through an enzyme-linked reagent.
For test [9] the target is unchanged. Kind of test: ELISA; first of two printed values (3.3/28.7).

Changes are numbered by the printed parent chain. In names and notes the source's numbering stands.

By Kd is commonly meant the free concentration of one partner at which half of the binding sites on the other are occupied at equilibrium, for simple one-to-one binding. Low readings indicate higher affinity, high ones lower affinity. Usually EC50 stands for the concentration giving half of the maximal effect. A high value points to lower potency in that assay.

T4 sequence (VH, as listed by the source, chain 1 of 2): as the sequence (heavy, as listed by the source, chain 2 of 2) above
T4 sequence (VL, as listed by the source, chain 2 of 2): as the sequence (light, as listed by the source, chain 4 of 2) above

B1: His‐tagged human FcγRIIB extracellular domain protein (domain or fragment)
chain: TPAAPPKAVLKLEPQWINVLQEDSVTLTCRGTHSPESDSIQWFHNGNLIPTHTQPSYRFKANNNDSGEYTCQTGQTSLSDPVHLTVLSEWLVLQTPHLEFQEGETIVLRCHSWKDKPLVKVTFFQNGKSKKFSRSDPNFSIPQANHSHSGDYHCTGNIGYTLYSSKPVTITVQAP
For the molecule B1, the dissociation constant Kd in test [1] worked out at 10.3 nM; in test [2] it was 10.7 nM; in [3], 10.1 nM; in [4], 10.1 nM; in test [5], 10.3 nM; in test [6] it was 10.7 nM.

B2: S2B W104A scFv, solitary (scFv, V domains shown)
VH: AVTLDESGGGLQTPGGGLSLVCKASGFTFSSYSMVWVRQAPSKRLEWVAGIYSSATWTYYAPAVKGRATISRDNGQSTVRLQLNDLRAEDTGTYFCAKTSRSGATAYSASAIDAWGHGTEVIV
VL: ALTQPSSVSANPGETVKITCSGGSSYYGWYQQKSPGSAPVTVIYSNDKRPSDIPSRFSGSTSGSTATLTITGVQADDEAVYFCGGYDSNIHGGIFGAGTTLTVL
As to B2, in test [7], the dissociation constant Kd is 9.6 nM. This molecule gave an EC50 in [8] of 6.7 nM.

B3: S2B S164A scFv, solitary (scFv, V domains shown)
VH: B2 VH with A104W
VL: B2 VL with S24A
Molecule B3 showed a dissociation constant Kd in test [7] of 0.8 nM. The EC50 in test [8] turned out to be 2.7 nM.

B4: S2B R101A scFv, solitary (scFv, V domains shown)
VH: B2 VH with R101A, A104W
VL: B2 VL
Consider B4, for which, in [8], it took 3.7 nM to reach a half-maximal effect (EC50).

B5: S2B Y52A scFv, solitary (scFv, V domains shown)
VH: B2 VH with Y52A, A104W
VL: B2 VL
In [7], B5 gave a Kd of 4.3 nM. This molecule came in with a concentration giving a half-maximal response (EC50) in [8] of 11.2 nM.

B6: S2B scFv (blocking anti‐6G11 scFv clone 2), solitary (scFv, V domains shown)
VH: B2 VH with A104W
VL: B2 VL
As to B6, the dissociation constant (Kd) in test [7] was determined as 1 nM. This molecule also had an EC50 in test [9] of 3.3 nM.
